Measurements: the DeepSol protein solubility set

Assay: soluble on expression in E. coli; label from the status in PepcDB or PDB records

Sequence	soluble on expression in E. coli
MSITAQLAALAGHGIELAKEIFAHGTSLKSKEDLAAVLGFDPTRVGRYQKTAKALFGPTDQPQLRAQAIAIAQKNNFSIDVLALINCKVGRLADAPLREEFRLELHRFAVDNSYTAIKQFANDQLEKRNGPNPARQHSLRYARFSHHPDANGMRYLITSLPDETMTAIEAKLVDKAKAHKSDTISM	not soluble
MGSDKIHHHHHHMIDVIIVGGGPTGTMLASELRLHGVHTVVVEKRAEPTRIVRGLGLHVRSIEIMDQRGLLERFLAHGTKHPVGGYFAGIMKPWPKSLDTAHPYILGIPQPTTDRLLEERASELGADIRRGWELVGLSQDEDGVTAQLADGTQLRARYLVGCDGGRSTVRTLLGVGFPGESATTEWLLGEVKATASPETVAAVMAKVRQTQLGFAMGPLDDGVYRAVVPAAHVSEDRAAPPTLEEFAQRLREVTGTDFGVHSPRWLSRFNDATRQAERYRVGRVLLAGDAAHIHAPLGGQGLNLGIQDAFNLGWKLAAAVNGWAPEGLLDSYHTERHPVAAEVLDNTLAQSAFMSTDPRARAAHRLLLELMDFEEVNRHVMEKITAVGVRYDFGDGHALLGRRLRDVRLGQGRLYERMRHGRGVLLDRTGRLSVAGWADRVDHVADSAAEIDVPALLLRPDGHVAWIGEDQDDLLAHLPRWFGDPAA	not soluble
MGSDKIHHHHHHMMPYITDIAALEHVGVAAAWTEKVPAFRVLREKRMLDFRAPITVITGENGVGKSTLLEAIAINAGFDTAGGEHTGKFKPSDNPLQTVAKAHKGKEPMRGYFLRAETHFNVASGYRDEAPGWVNLHHMSHGESVMHIVQNAFVGKGLYLMDEPEAGLSFIRQMAILAELNFLAESGAQIIIVTHSPVLMAIPGAEIWEFSASGELHRGFDFEVTTAFRALRDFFEDPEEIAEYMMDVMMDNKGES	not soluble
GSHMAQQNILSVHILNQQTGKPAADVTVTLEKKADNGWLQLNTAKTDKDGRIKALWPEQTATTGDYRVVFKTGDYFKKQNLESFFPEIPVEFHINKVNEHYHVPLLLSQYGYSTYRGS	soluble
MDFSNRLLLLLEVTELGSFTNVAEQKNLDRSVISKQISRLEEELGVRLLNRTTRSLSLTAAGNEMVNQAKLLRDLLNNTHRLAQNYHSEPRGILRITSSMMFGRQYVQDAISVFQKQYPDVKCELRLEDRVVDIVQEGFDIGFRIGRPKNSSLISRKIARSRLLIVASPDFIQQHGKIETIEKLESLPATIYAAPGLFIDKFTYLDENKVEQQFHLNVAYKVNDVEMVVKSAVAGNTLAVVTAQMIENEIIEGKLIPIMTHLNLEDFGTFFAVYPHRDAPIKTKLFIDVLKSIIGEDSPMWEKNIPDFAKLYGGTK	not soluble
MSLNRVSHPLTYENFKTSSAEQESKITKLLENLYKGGKRIVKLRNDPTGVTHAIRLDNDIFKLNVYIKNIDTSKSNLRYTEGYLQSLTNILTRAKEIAIQGASGTYESDDKKMISKEVNALLEDVVAIANAKGPDGYSIFSGTKIDSEAFKVTRENKISKTSKDGAGPQIIKVEYNGNQAEKKTEVYNDIHMSNNYPGNVIFFLQNQNIISSINTNGFAVKENTKIYIDNIEIGLTAGDTALDIVAKINESSAPVEASIDPVLNSLSIKTTTPHQIWITEEKESNVLQTLGILTKNNDTKLPPYNLSSSTEVRSRSIFDALIELRDTLYNNKEELVGSRSLAEIDESLKRLLISVADLGAKENRLDRSYERISKEAADMKEDMIQYTDEGHHHHHH	soluble
MAGKCVFIVGAKRTAFGTFGGKLKGLSATDLGVVASQAALKHANVGADAVDHVIFGNVVASSRDGIYLSRHIGLKSGVPQNVGALTVNRLCGSGFQAVVNAAQAIKLGESNIVLAGGTENMSMVPFAVRDIRFGTALGKKYEFEDMLWDSLSDPYAKLAMGQTAEKLGAQYKVTRQEADEFALRSQTLWKKAQEAGVYKNEIVGITIKGRKGEESFEIDEHPRATTAESLAKLKPVFQKDGLVNAGNASGISDGAAALVVAGEDSVKSKNLKPLARVVAYSAVGCDPTIMGIGPAPAIREVLKKSGLKIGDIDIFEVNEAFAPQALAVQRELGIPMEKLNVNGGAIALGHPLAASGARISTHIVHELHRRNVKYGIGSACIGGGQGIAILFEKIEMKVLSKKKFFSEKNQKSANTSTQSRVSDANSPPPPPPHFTRSFLGL	soluble
MKTITETLNLAPKGKNFLTADWPAPANVKTLITTRNGGVSQGAYQSLNLGTHVGDNPEAVRRNREIVQQQVGLPVAYLNQIHSTVVVNAAEALGGTPDADASVDDTGKVACAVMTADCLPVLFCDRAGTAVAAAHAGWRGLAGGVLQNTIAAMKVPPVEMMAYLGPAISADAFEVGQDVFDAFCTPMPEAATAFEGIGSGKFLADLYALARLILKREGVGGVYGGTHCTVLERDTFFSYRRDGATGRMASLIWLDGNAV	soluble
MMQIDSIEIGGKVYQFFKSDLGNAPLLFIKGSKGYAMCGYLNMETSNKVGDIAVRVMGVKTLDDMLSAKVVEASQEAQKVGINPGDVLRNVIDKL	soluble
MKVAILGYGTVGSAVVKFLLENDKLIRARCGQSITPVIALARSPKKNALIPITHSVAEILNADVDVFVELMGGVDEAFKIVSEILKKKKAVVTANKAMLAYHRYELENLAKNLAFGYEASVAGGIPIIKVLKEGLSANNILAIKGILNGTSNYILSSMSQKNMSFKQALQIAQNLGYAEADPTFDIEGQDAAHKLLVLSSIAYNLKAKPEDILIEGISEIAPEDMYFANEFEFTIKLLGIAKVRENKVELRVHPTMIDKEKMLAKVDGVMNAISINGDLLGESLYYGAGAGGEATASAVISDLMDIARDQVKAPMLGFVNTLEYKLLSKDEIYTKYYLRVKVEDKIGILSKITQLMSENNISIDSFLQKPKKNDENYSTLFFTTHLTYEKSIQNLLEILRKQDFIKTKPFMMRIE	not soluble
HQQLNSLPTMEGPPTFNPPVPYFGRLQGGLTARRTIIIKGYVPPTGKSFAINFKVGSSGDIALHINPRMGNGTVVRNSLLNGSWGSEEKKITHNPFGPGQFFDLSIRCGLDRFKVYANGQHLFDFAHRLSAFQRVDTLEIQGDVTLSYVQI	soluble
MSSFDKNDERAQLMVPKSINEGKVVKLSQKTLVTKKIERQVVPEEKYIAGLDKIIEKDYFPHLKKMQAQKEYLEAVANKDINKIKELQMKFCSTGSVRTDRSFRTPITTRSTTEAPDVSSFDADTPGPSSASTSSAHDWMQSPMPFANEEGDNEALNRKRKKKKEETLTSYLNKYTSEDNASFEELAKVMREREDARRPWVYKAEEEHNKNLVTRQAIAAEADVQLALKHAVDADDNRPLNVDNWAYKAWNTVLFNPDGAALTPAEIADAARKQQTEINKRGTRFPDSGKLKPSDEAMTRAAVSHALANAGKVDFLGNEVTPANSFKLLETPNPNPDDMDSPLMTWGEIDGTPFRLDAPDVTEHSLPGAAPVFKIPEVPYREKIAQSMNDSIAAKYRDKRKVAMRAAEGAHRTPGFGSKRVSDKLAQLSPAAQKLATKKLGLKMLPAHKSPFASPKIMSNWSRPSSSKRSTTPGSAWSRGSTTPGSSWSQGAQTPGTPGIESMIRRKGDNVGPSTSAGAADRANAGDFF	not soluble
MGSDKIHHHHHHMQPTYLPWMGYFDLIDIADKFVFLDNVQLERSGWQVRNRIRSSQGELMLRVAIATPKRFDETLIHQTQFVTGHPWRKKHLKSIQMNYQKAPYFAQVYPLLESLYQKDETSLSQFNISVINALCTFMGINTPRMLASELVDIEGIKDARLTSICKHLDADQYLSPLGAMAYIEQESSGGDLGENGIDVFYHQFVHPQYTQVYDGFISHLSIIDALFNLGPQNTVTLIRQFRQAPINYTSLPR	not soluble
MGSDKIHHHHHHMLQTINLTQRYATKKLFENVNIKLDKNKRYGLIGANGAGKSTFLKILSKSIDCSSGEVIITSGMKMGVLGQDQYAFEDLSLKDAVLIGNKRLYDAIKEKERLYTEGDLSDDKVNARLGELETICVEEDPMYECEVAIEKILEDLGIPSSKHNDLMKTLPSSDKFKILLAQVLFPKPDILLLDEPTNNLDLNAIEWLENNLKRHEGTMVVISHDRHFLNAVCTHILDLDFHSVREFSGNYDDWYIASTLIAKQQEAERNKKLKEKEELEKFIARFSANASKAKQATSRQKQLDKLDIQSLAVSSRRDPSIIFKPKRTIGNEALECENISKSYDDQIVLNQVSLKVMPKDKIALIGPNGVGKSTLCKILVEELKPDKGVVKWGATVSKGYFPQNVSEEISGEETLYQWLFNFNKKIESAEVRNALGRMLFNGEEQEKCVNALSGGEKHRMVLSKLMLEGGNFLVLDEPTNHLDLEAIIALGEALFKFDGALICVSHDRELIDAYANRIIELVPSPKGASIIDFKGSYEEYLASKK	not soluble
MSLKINGEVTFKNNQVNYDENAITNLKLSGSDAKKENIKEVYMDLTNVGGPNKVLMDLNLLKDNSLSQSIGINDNVVAGEKEIPVTIVDKNGENHKAKGILTVKSKVGVGPLDFGFDESRIYFTVTDRFFNGDKNNDDPHGNNYDKKNPYTYHGGDLKGLTDKISYLKELGINTIWITPIVENTDFNQMFSQGKTQYSCHGYWAKDFEKLDPHLGTMDDLKTLIDTAHDSGIKIMVDVVLNHAGYGMKNKDNSGANNSPTEEDIAKFKGMFRENPGNDFITQESAGLPDFKTEDPEVREKLIEWQTGWIERSKTEKGNTIDYFRVDTVKHVDNTTWKAFKNKLTEINPSFKTIGEYFGADINNDGGQLQNGQMDALLDFGYKGKARDFVNGNIEGTSAYLDDRASKISNTNLMGQFLSSHDEDGFLKTVGDDLGKQMLAASLQITDKGIPVIYYGEELGMSGWNGFEQGDQNRYDMDFERLNDPKYKKVHDHYEKLLNIRKEYSKIFSKGNRKTIAGNNEEGYSVVLRSYNGKEITPMNLSENNEEKNITNGQNLFVVLNTKNEDKDISFKTNFKEGEKVKDLYSGNEYSIGKDGKVTVKVPSKEEGGTAILALKNREGHHHHHH	soluble
MGSDKIHHHHHHMVRHKRDIQRDTVPEWEDLRQLAHEIKRYNVTHLDELLLRFEENARRNGVIVHWAKDAKEHNEILYGILRDHGVKKFVKSKSMLTEECHLNEYLIEKGINVIETDLGERILQLMEEPPSHIVMPAIHIKREAVSDLFHDKLGTEKGNYDPTYLTRAARKSLREDFISADAAMTGGNFAVASTGEVVVCTNEGNADMGMACQKLNICSFGLEKLVPDLDAVGVFTRLLARSGTGQPSTTYTAHYRKPHEGGELHYIIVDNGRTDIIENEEHVKTLNCIRCGACMNTCPVYRRSGGYSYTYFIPGPIGINLGMLKDPRRYSDNVSACSLCLSCSNVCPVKIDLGEQIYRWRQDLDHLGRASQEKKLMSAGMKYLMDSPWRFNTALKMAPMANSLPRFLLYNGLNAWGKGRELPRFASTSFNNWWKKNIKK	not soluble
MGSDKIHHHHHHMTQPFKDAISICKTILRNGYDAYVVNMRLQSELMAEDKRMEIDLACECDFDEIARLFPNATRSDEEGVLAMLEEGGVAHRFYLTDTEESSYPDRTLMRITPHMVARLQALGKAHSSLTLPYGAAAPHDSDDFESFDKGIIRLRGLPDETLRRNYLLAVRAIRYAANLDMEIDPVTWIAIVRSAGRVLDYVPVSDIVAEWQMVEAETMWKFVRLLFDAQLLHGLLPEVAALARVRQSRNDSGDTETVLDHTIECMRHYPEEGFHHDWYGTLAMLFHDVGKLFTADFHDGQWTFYQHHRVGAKVTRRLLHRLHLPAQEVDLICHLVRHHMRFHFMLTDKGIRRFAALDEYPRLMEMARADIKARDGSYTYFNHNQKYLERAATPEQMLEPLLNGNEIMQHTGLHPGPQVGLIRDALLNAQVTGAVADVNDAVAFIKEYKRQYFS	not soluble
